These results are taken from paper PMC5596342, “Activity-Related Conformational Changes in D,D-Carboxypeptidases Revealed by In Vivo Periplasmic Förster Resonance Energy Transfer Assay in Escherichia coli” (mBio, 2017).

Where a chain is given by its changes, count along the chain named. Names may count otherwise.

The chains are these.
B1: PBP6b^S63G active-site mutant, fusions mNG-PBP6b^S63G and mCh-PBP6b^S63G (enzyme, Escherichia coli, UniProt P33013 22-388, looked up)
chain: AENIPFSPQPPEIHAGSWVLMDYTTGQILTAGNEHQQRNPAGLTKLMTGYVVDRAIDSHRITPDDIVTVGRDAWAKDNPVFVGSSLMFLKEGDRVSVRDLSRGLIVDSGNDACVALADYIAGGQRQFVEMMNNYAEKLHLKDTHFETVHGLDAPGQHSSAYDLAVLSRAIIHGEPEFYHMYSEKSLTWNGITQQNRNGLLWDKTMNVDGLKTGHTSGAGFNLIASAVDGQRRLIAVVMGADSAKGREEEARKLLRWGQQNFTTVQILHRGKKVGTERIWYGDKENIDLGTEQEFWMVLPKAEIPHIKAKYTLDGKELTAPISAHQRVGEIELYDRDKQVAHWPLVTLESVGEGSMFSRLSDYFHHKA
notes: PBP6b (dacD) of Escherichia coli with the active-site serine 63 changed to glycine; One molecule for the two differently tagged copies; source: E. coli, expressed from plasmids pSAV057 and pTHV037, in the periplasm of fixed cells; not shown: mNeonGreen (donor copy) or mCherry (acceptor copy), N-terminal, kept
B2: PBP6a (D,D-carboxypeptidase, dacC), fusions mNG-PBP6a and mCh-PBP6a (enzyme, Escherichia coli, UniProt P08506 28-400, looked up)
chain: AEQTVEAPSVDARAWILMDYASGKVLAEGNADEKLDPASLTKIMTSYVVGQALKADKIKLTDMVTVGKDAWATGNPALRGSSVMFLKPGDQVSVADLNKGVIIQSGNDACIALADYVAGSQESFIGLMNGYAKKLGLTNTTFQTVHGLDAPGQFSTARDMALLGKALIHDVPEEYAIHKEKEFTFNKIRQPNRNRLLWSSNLNVDGMKTGTTAGAGYNLVASATQGDMRLISVVLGAKTDRIRFNESEKLLTWGFRFFETVTPIKPDATFVTQRVWFGDKSEVNLGAGEAGSVTIPRGQLKNLKASYTLTEPQLTAPLKKGQVVGTIDFQLNGKSIEQRPLIVMENVEEGGFFGRVWDFVMMKFHQWFGSWFS
notes: PBP6a (dacC) of Escherichia coli; construct details in Text S7 and S8; One molecule for the two differently tagged copies; also called FP-PBP6a; source: E. coli, expressed from plasmids pSAV057 and pTHV037 (15 µM IPTG), in the periplasm of fixed cells; not shown: mNeonGreen (donor copy) or mCherry (acceptor copy), N-terminal, kept
B3: PBP6a^S66G active-site mutant, fusions mNG-PBP6a^S66G and mCh-PBP6a^S66G (enzyme, Escherichia coli, UniProt P08506 28-400, looked up)
chain: B2 chain with S39G
notes: PBP6a (dacC) of Escherichia coli with the active-site serine 66 changed to glycine; One molecule for the two differently tagged copies; source: E. coli, expressed from plasmids pSAV057 and pTHV037, in the periplasm of fixed cells; not shown: mNeonGreen (donor copy) or mCherry (acceptor copy), N-terminal, kept
B4: PBP5 (D,D-carboxypeptidase, dacA), fluorescent-protein fusions mNG-PBP5 and mCh-PBP5 (enzyme, Escherichia coli, UniProt P0AEB2 30-403, looked up)
chain: DDLNIKTMIPGVPQIDAESYILIDYNSGKVLAEQNADVRRDPASLTKMMTSYVIGQAMKAGKFKETDLVTIGNDAWATGNPVFKGSSLMFLKPGMQVPVSQLIRGINLQSGNDACVAMADFAAGSQDAFVGLMNSYVNALGLKNTHFQTVHGLDADGQYSSARDMALIGQALIRDVPNEYSIYKEKEFTFNGIRQLNRNGLLWDNSLNVDGIKTGHTDKAGYNLVASATEGQMRLISAVMGGRTFKGREAESKKLLTWGFRFFETVNPLKVGKEFASEPVWFGDSDRASLGVDKDVYLTIPRGRMKDLKASYVLNSSELHAPLQKNQVVGTINFQLDGKTIEQRPLVVLQEIPEGNFFGKIIDYIKLMFHHWFG
notes: PBP5 (dacA) of Escherichia coli; the FP is fused to the N terminus; construct details in Text S7 and S8; One molecule for the two differently tagged copies (mNG-PBP5 and mCh-PBP5), each chain carrying only one of the two fluorescent proteins; PDB 5J8X is a soluble form that lacks the C-terminal helix; also called FP-PBP5; source: E. coli, expressed from plasmid pSAV057 or pTHV037 (15 µM IPTG), in …
B5: PBP5^S44G active-site mutant, fusions mNG-PBP5^S44G and mCh-PBP5^S44G (enzyme, Escherichia coli, UniProt P0AEB2 30-403, looked up)
chain: B4 chain with S44G
notes: PBP5 (dacA) of Escherichia coli with the active-site change of Ser to Gly at position 44; One molecule for the two differently tagged copies; also called FP-PBP5^S44G; source: E. coli ΔdacA strain, expressed from plasmids pSAV057 and pTHV037, in the periplasm of fixed cells; not shown: mNeonGreen (donor copy) or mCherry (acceptor copy), N-terminal, kept

The data set deals with the molecule itself. The data set can be described thus: FRET or BRET; spectrum-based periplasmic FRET (mNG donor, mCh acceptor, spectral unmixing, acceptor FRET efficiency EfA) in E. coli grown in Gb1 at 28°C, induced with 15 µM IPTG, fixed with 2.8% formaldehyde and 0.04% glutaraldehyde, measured in PBS in a spectrofluorimeter; where indicated cells treated with 2 µg/ml amdinocillin or 1 µg/ml aztreonam during induction; cut-off for interaction EfA above 1.4%.
As to B1, the “EfA (acceptor FRET efficiency)” value was determined as 2%.

On to B2, for which the “EfA (acceptor FRET efficiency)” value came out at 3.2%.

In the case of B3, the “EfA (acceptor FRET efficiency)” value came to 3.8%.

As for B4, the “EfA (acceptor FRET efficiency)” value came out at 2%.

Regarding B5, the “EfA (acceptor FRET efficiency)” value is 5.4%.
